Measurements taken from US10705076.

How the values were obtained:
[1] = target: HLA class II antigens (HLA-DR, HLA-DQ and HLA-DP); test: Luminex dose/response, mean over 5 class II bead types; SD 298.79
[2] = target: HLA class II antigens (HLA-DR, HLA-DQ and HLA-DP); test: Boltzmann sigmoid fit of the Luminex titration curve, lower asymptote
[3] = target: HLA class II antigens (HLA-DR, HLA-DQ and HLA-DP); test: Boltzmann sigmoid fit of the Luminex titration curve, upper asymptote
[4] = target: HLA class II antigens (HLA-DR, HLA-DQ and HLA-DP); test: Luminex dose/response, mean over 5 class II bead types, antibody 2 × 10^0 µg/ml; SD 167
[5] = target: HLA class II antigens (HLA-DR, HLA-DQ and HLA-DP); test: Luminex titration on Labscreen Mixed class II beads; concentration at 50% of (MAX - MIN)
[6] = target: HLA class II antigens (HLA-DR, HLA-DQ and HLA-DP); test: Luminex dose/response, mean over 5 class II bead types, antibody 5 × 10^-4 µg/ml; SD 29.6
[7] = target: HLA class II antigens (HLA-DR, HLA-DQ and HLA-DP); test: Luminex dose/response, mean over 5 class II bead types, antibody 2 × 10^-3 µg/ml; SD 72.15
[8] = target: HLA class II antigens (HLA-DR, HLA-DQ and HLA-DP); test: Luminex dose/response, mean over 5 class II bead types, antibody 5 × 10^-1 µg/ml; SD 160.45
[9] = target: HLA class II antigens (HLA-DR, HLA-DQ and HLA-DP); test: Luminex, each Labscreen Mixed class II bead type, antibody at 2 µg/ml; SD approximately 700
[10] = target: HLA class II antigens (HLA-DR, HLA-DQ and HLA-DP); test: Luminex dose/response, mean over 5 class II bead types, antibody 7.8 × 10^-3 µg/ml; SD 145.09
[11] = target: HLA class II antigens (HLA-DR, HLA-DQ and HLA-DP); test: Luminex dose/response, mean over 5 class II bead types, antibody 3.13 × 10^-2 µg/ml; SD 273.56

B1: monoclonal chimeric immunoglobulin Hu-IgG1 K [F3.3] (antibody, V domains shown)
VH: EVKLEESGGGLVQPGGSMKLSCVASGFTFSNSWMNWVRQSPEKGLEWVAEIRLKSNNYATRYAESVKGRFTISRDDSKSSVYLQMNNLRSEDTAIYYCTPLSYSFDYWGQGTTVTVST
VL: QIVLTQSPAIMSASPGEKVTMTCSASSIVRYMYWFQQKPGSSPRLLIYDTSSLSSGVPVRFSGSGSGTSYSLTISRMEAEDAATYFCQQWSSYPLTFGGGTKLEIKR
[1]
  Average (fluorescence intensity) (fluorescence units): 18000
[2]
  MIN (fluorescence units): 88
[3]
  MAX (fluorescence units): 24600
[4]
  Average (fluorescence intensity) (fluorescence units): 23600
[5]
  EC50: 0.05 µg/mL
[6]
  Average (fluorescence intensity) (fluorescence units): 316
[7]
  Average (fluorescence intensity) (fluorescence units): 1090
[8]
  Average (fluorescence intensity) (fluorescence units): 22800
[9]
  fluorescence (average fluorescence units): 22000
[10]
  Average (fluorescence intensity) (fluorescence units): 3520
[11]
  Average (fluorescence intensity) (fluorescence units): 9130
